PMC9335916 (ACS Central Science, 2022)

Molecular target: trypsin from porcine pancreas (porcine, UniProt P00761 9-231)
Test: native MS

Sequence of trypsin from porcine pancreas (P00761 9-231): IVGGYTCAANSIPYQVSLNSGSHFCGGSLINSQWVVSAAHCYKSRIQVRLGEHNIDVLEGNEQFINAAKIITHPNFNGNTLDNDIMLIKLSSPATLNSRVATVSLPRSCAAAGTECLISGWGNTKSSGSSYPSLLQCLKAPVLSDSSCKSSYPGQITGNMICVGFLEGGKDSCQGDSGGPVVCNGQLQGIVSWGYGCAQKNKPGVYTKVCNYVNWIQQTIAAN

B1: Soybean trypsin inhibitor (natural protein)
chain: DFVLDNEGNPLENGGTYYILSDITAFGGIRAAPTGNERCPLTVVQSRNELDKGIGTIISSPYRIRFIAEGHPLSLKFDSFAVIMLCVGIPTEWSVVEDLPEGPAVKIGENKDAMDGWFRLERVSDDEFNNYKLVFCPQQAEDDKCGDIGISIDHDDGTRRLVVSKNKPLVVQFQKLDKESL
apparent Kd (without RF correction): 27.1 ± 8.4 µM
